Results: the supplement of paper PMC9170038

Test system: K4 kissing-loop RNA reporter
Experiment: apparent KD of K4 kissing-loop reporter; higher = weaker reporter binding
Settings: Eterna round: R107
Protocol: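 RNA-MaP round R107: designed RNA switches with theophylline, tryptophan, arginine or FMN aptamers are transcribed on-chip within common flanks. They are titrated with a labelled K4 kissing-loop RNA reporter in RNA-MaP buffer (100 mM Tris pH 7.5, 80 mM KCl, 4 mM MgCl2), without ligand or with the indicated ligand. Median apparent KD per design.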

[1] = input ligand: theophylline 20 uM
[2] = input ligand: tryptophan 2.4 mM
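Also: bound reporter read as fluorescence of individual clusters on recovered sequencing chips by microscopy, with normalized cluster intensities fitted with a binding model.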

Row | Sequence | apparent KD of K4 kissing-loop reporter (input ligand: FMN 200 uM) [nM] | apparent KD of K4 kissing-loop reporter (input ligand: arginine 13.2 mM) [nM] | apparent KD of K4 kissing-loop reporter (input ligand: none) [nM] | apparent KD of K4 kissing-loop reporter [1] [nM] | apparent KD of K4 kissing-loop reporter [2] [nM]
1 | UGACUGGACUGAAGGAGCGCUAAACUCCUAGUGAUGUUAGGAUAACGAGACAAAGUCUCGAAGCAGGUAGGUCGCAGUCUAGUCU | 149 | 110 | 117 | 133 | 128
2 | GGUCGCCUGAGCAGUGAUGUUGCAAGGGAAGGAGCGCGUUUUUUCGCAGGUAGGUCGCCCAAAUAAUAAGUUAAACUAGGCGACC [4.)] | 221 | 144 | 149 | 316 | 205
3 | UUUUAUUAAUUCUUCUAGUGAUGUUAGAUACGAGGACCGGUACGGCCGCCACUCGCUUAUUGGUUUAUAUAUUUUAUAUUCUUUA [JR_SSTryptoA_Sub015] | 293 | 319 | 330 | 400 | 264
4 | GUUACGCAUGGAAGGAGCGCGAUUAAAUUUAGUGAGUGAUGUUCACAAAAUAAAACUAAAACGCAGGUAGGUCGCCAUGUGUAAC [Ex Arginine B K4 2] | 171 | 196 | 188 | 198 | 159
5 | CGUCACACUUGAUGGUUAUCCAAUGAUGAUACCAGCCGUCGAGAUGGCCCUUGGCAGCAUGUGGUACAGUGAUGUUGUACAUUGG [theeternabot_sameState_KL_Theo_A_30] | 392 | 244 | 383 | 352 | 258
6 | UUAGCAGUAUACUGCAAGACCUAUACUGAUACCAGAGCCUAUAGGCUCCCUUGGCAGCGGAUCGAGUGAUGUUCGUAAGGUCAUU [AK4.3 SS Theophylline A] | 651 | 667 | 1080 | 682 | 458
7 | UGUCAUUGGUCGGCCGCCACUAGACGGAUCAUAAGAUCUGUCAAUAAGAGUGAUGUUCUAAAUAAUAGGACCGGGACCGAUGACU [TrypBS 27 #SwitchBubble #StaticStem] | 988 | 653 | 907 | 681 | 647
8 | CUUGAUGGAAACAUCGAGUAUUUCACUGAUACCAGUAUCGAUAGAUACCCUUGGCAGCAGGAUCAGUGUUUACGAGUGAUGUUCG [Ex Theophylline A K4 9] | 444 | 408 | 451 | 380 | 376
9 | UGACUGGACUGAAGGAGCGUUGAAGGAGCGUAAGGAGUGAUGUUCCAUACAGGUAGGUCGCAGCAGGUAGGUCGCAGUCUAGUCU [ArgBS 26 #DoubleAptamer #SwitchBubble] | 204 | 245 | 229 | 171 | 281
10 | CGCAAAUCGUCGGCCGCCACUGCAUUUGAACGCUAAUUGUCUCUGCGCGGAGUGAUGUUCUGUGCCAGGACCGGGACGGAUUUCG [theeternabot_exclusion_KL_Trp_B_21] | 446 | 381 | 517 | 499 | 146
11 | GCGCGGGAGUGAUGUUCCAAGUGGUGUUAACGAGGACCGGUACGGCCGCCACUCGUUACGGCCGGGCCGUAGGAUACACUGGCGC [Same State - Tryptophan A (Freestyle 16)] | 168 | 242 | 274 | 471 | 415
12 | AAAUAGAUCAGUCAUCCAGUGAUGUUGGAAGGAGCGUGCGAAAGCACAGGUAGGUCGCCGAAAUAAAAGUGGCUGAUCAAAAUAA | 128 | 216 | 143 | 193 | 102
13 | CGACACUCAGCGGCCGCCACUGAGCUAUAUUUUGCAGGUGCCCGAGUAAGUGAUGUUUACUUCGUCAGGACCGGGCUGGUUUCAA [theeternabot_sameState_KL_Trp_B_20] | 514 | 298 | 609 | 294 | 351
14 | CCUUCCUAAAACGAUACCAGUUUCUAUCCUCAAUCCAGUGAUGUUGAAUUGAGCUCACAGAACCCUUGGCAGCGUCGCUAUACGG [theeternabot_sameState_KL_Theo_B_39] | 214 | 202 | 195 | 180 | 190
15 | CAUACGCAUGGAGGAUAUGAGAUUUCUCAUAUUAUUGCUUAUUCUCAGUGAUGUUGGGAUUUAAGCUCAGAAGGCCAUGUGUAUG [Ex FMN B 10] | 187 | 88.4 | 98 | 94.2 | 85.8
16 | CCGGGCGGCUGAAGGAGCGGGCGGGCCCGAGUGAUGUUCGGGUGGACCGUGAGGUCCGGUGCCCAGGUAGGUCGCGGUUCCGCCC [#2 Same State - Arginine B Attempt #8 (HarryS)] | 247 | 183 | 162 | 296 | 238
17 | AUACACGUUGCGGCCGCCACUUCGAUUAGUGAUGUUAGGUGUAAGCAGGCGCUGCAUUAAUGUGAAAGGACCGGGCAGAGUAAGC [theeternabot_exclusion_KL_Trp_B_39] | 203 | 114 | 160 | 206 | 148
18 | GGUAGCAUGGCGGCCGCCACUAAGAGAGUGAUGUUCUCUUAGUUUUUUGAUGUGUUAUCAAUUCUUAGGACCGGGCCAUGCUACC | 111 | 92.4 | 98.2 | 99.8 | 109
19 | CGUGAAGACCAGAGGUGAUGUAUAGUAUCGCGAGGACCGGUACGGCCGCCACUCGUGAAGAGAAAGGAGUGAUGUUCCGUAAUGG [C12] | 246 | 239 | 312 | 326 | 107
20 | AUGCGCGCGGCGGCCGCCACUCGCAUGAGAGUGAUGUUCUCGCCGGGCCCGAAAGGGCCCGGUGUGAGGACCGGGCCGGGCUGCG [#2 Same State - Tryptophan B Attempt #15 (HarryS)] | 176 | 64.9 | 145 | 91.8 | 237
21 | UGACUGGACUGAAGGAGCGCUGAACUCCUAGUGAUGUUAGGACAACGAGACAAAGUCUCGAAGCAGGUAGGUCGCAGUCUAGUCU | 154 | 129 | 154 | 152 | 184
22 | UAUGGCGAGGGCCGCAUAUCAUUAAACCAGAAGGAUAUAUGUUACUAUAGAAGGUCUGCCGCUGCGAGUGAUGUUUGGAGUGAUC [theeternabot_sameState_KL_FMN_A_3] | 326 | 195 | 260 | 242 | 229

Row | Sequence | apparent KD of K4 kissing-loop reporter (input ligand: FMN 200 uM) [nM] | apparent KD of K4 kissing-loop reporter (input ligand: arginine 13.2 mM) [nM] | apparent KD of K4 kissing-loop reporter (input ligand: none) [nM] | apparent KD of K4 kissing-loop reporter [1] [nM] | apparent KD of K4 kissing-loop reporter [2] [nM]
23 | UCCUAGGCUCGAAAGAGCCUAGGAUUUACUCAGGAUAUCCGGAAACGGAGAAGGGAGUAACUAGUGAUGUUAGGGAUUCCCUAUU | 552 | 113 | 123 | 131 | 125
24 | GCCCGAAAGGGCCGAUGUGUUUGCGGCGAUCGAGGACCGGUACGGCCGCCACUCGUCGAGGCGUUCAGUGAUGUUGAAAGCAUUA | 334 | 279 | 352 | 354 | 626
25 | GUACGCUCCCGAGUGAUGUUCGGUAAUCGCGAGGAUAUCGCUUUUGCGAGAAGGCGCGGAAUGAGGAAACUCGUUCUGAGUGUAC [FMN A 25] | 234 | 191 | 253 | 212 | 233
26 | GGGUUUGACGGAGGAUAUGCACUGAGGAGGAGAAUAUAGUGAUGUUAUAUAAGAGGAAGGAGAAGAGUAGAAGGCCGUUGGGUUU [SSFMNB.L] | 124 | 131 | 139 | 165 | 104
27 | AUUAAUUUCAGAGGAUAUGCUUAAUUGAUUUAUUAUUAUCUAUUAUGCAGUGAUGUUGCAUAUUUUGCAGAAGGCUGAUUUAUAA [JR_SSFMNB_Sub018] | 123 | 156 | 140 | 156 | 125
28 | GGGAGUAGUGCGGCCGCCACUGAGAAAGAAGAAGAAUAUAGUGAUGUUAUAUAGGAAGGGAAGAAUAGGACCGGGCAUUAGAUUU [SSTRyptB.Z] | 336 | 250 | 340 | 275 | 233
29 | UGAUACCAGACGGCCGCCACUUCUGCAAGUCAAAGACUUGCUAAGGGAAUCGUCCAGUGAUGUUGGAGGACCGGGUCUGGUAUCU [FiskerMod 2 - Jieux - Exclusion - Tryptophan B] | 1050 | 823 | 1200 | 999 | 1050
30 | GGCCGGAAGGCGGCCGCCACUCAGUGAUGUUGUGUGAAAGAAAAGAAAAGAAGAAAGAAAAGAAAGAGGACCGGGCCAAACGGCC | 257 | 224 | 504 | 643 | 580
31 | UGUACCGAGUCAGGAUAUGGCGUCGAAAGACGAAUCUUAGUGAUGUUAGGGAUCUGCGAAAGCAGUUCAGAAGGGACUUGGUACU [FmnBS 26 U37+U67] | 349 | 427 | 506 | 556 | 515
32 | UGAUACCAGACUGAUACCAGCUAGUGAUGUUAGCUGAAAUCAGGGUCAAAGACCCUGUCUGGCCCUUGGCAGCAGUCUGGUAUCU [TheoBX 18 #SwitchBubble #StaticStem] | 83.2 | 72.3 | 76.2 | 73.2 | 71.2
33 | UGAUACCAGACGGCCGCCACUCCUGCAGUCAAAGACUGCAAGGAAAUAUUCGUCCAGUGAUGUUGGAGGACCGGGUCUGGUAUCU [TrypBX 9 #SwitchBubble #Palindromic #StaticStem] | 921 | 687 | 820 | 670 | 1060
34 | AAAAUAAGCCAGUGAUGUUGGUAUCCAGAUACCAGCGACGAAAGUCGCCCUUGGCAGCUGUGGACGUACAAAAUAAGUACGUCCU | 194 | 107 | 143 | 266 | 126
35 | AAGUGAUGUUGUAGUGAUGUUGUGAUGUUGCAGGAUAUAUAGUGAUGUAGAAGGGUAAGUACUUAUUUUUUUUUUGAGUGAUGUU [vcbczrmullin] | 96.6 | 45 | 76.5 | 58 | 83.7
36 | GCGUAUGAUGCUCAAAGAGUAUCUCCCGAUACCAGUAUGGAAACAUACCCUUGGCAGCGGGUAACUGCCCAGUGAUGUUGGACGC [Theophylline A K4 9] | 430 | 253 | 351 | 394 | 326
37 | CGCAGUGAUGUUGCGAGUAGCUACAGGGAAGGAGCGUGCUAGAGCACAGGUAGGUCGCCCAGUGGCAGUGAUGUUGCCAACGGGU [Exclusion ARginine A GF 18] | 132 | 110 | 110 | 104 | 109
38 | UAAUAAAUUCCAGCGAUAUCGCUCUUCGAAGGAGCGGACGAAAGUCCAGGUAGGUCGCGAAGAGUGAUGUUCUUUGCGGCGCUGG [Omei KL Arginine A Exc A v4] | 207 | 180 | 262 | 320 | 226
39 | GGAUCCACCAGUGAUGUUGGAGAAAACUCCAAGGAUAUGACGAAAGUCAGAAGGUGGUAGACUGGACAAAGUCCGGUCGGAUCCA [FmnA 23 #SwitchBubble #K4Early] | 719 | 113 | 126 | 68.1 | 160
40 | GGUGAUGAGCACGAUACCAGCCUCGGAGCCAGUGAUGUUGGCCCAAUUUAAAAUAAGAUAGGCCCUUGGCAGCGUGACGAUGGCU [Rainle] | 727 | 727 | 711 | 466 | 643
41 | UGACAUUGCUCAGAUACCAGACUUGAGGAACACCCAAGUGCCAAACGUACAAUAAUAAAAGUCCCUUGGCAGCUGAGCAAUGUCU [TheoBX 14] | 111 | 53.6 | 82.1 | 62.8 | 59.8
42 | CACCUGCCAUAAGGAUAUUCGUCUUUGCGCUUCCAGUGAUGUUGGAGAUCGCAACACAUGGUCAUAGAAGAAGGUAUGGUAUUAA [theeternabot_sameState_KL_FMN_B_35] | 154 | 186 | 195 | 191 | 186
43 | CUAUGGAAACAUAGUGAUCGGGAAACCGAUACCAGUAUGGAAACAUACCCUUGGCAGCGGAAUGAUCAAACGGAGUGAUGUUCCG [Theophylline A K4 21] | 459 | 318 | 648 | 278 | 288
